Consider five molecules from US20220411487A1 (Regeneron, published 2022).

In experiment [1] the target is T1, full length mouse TMPRSS6 on HEK293 cells (HEK293/mTMPRSS6) (mouse, UniProt Q9DBI0 1-811).
T1 sequence: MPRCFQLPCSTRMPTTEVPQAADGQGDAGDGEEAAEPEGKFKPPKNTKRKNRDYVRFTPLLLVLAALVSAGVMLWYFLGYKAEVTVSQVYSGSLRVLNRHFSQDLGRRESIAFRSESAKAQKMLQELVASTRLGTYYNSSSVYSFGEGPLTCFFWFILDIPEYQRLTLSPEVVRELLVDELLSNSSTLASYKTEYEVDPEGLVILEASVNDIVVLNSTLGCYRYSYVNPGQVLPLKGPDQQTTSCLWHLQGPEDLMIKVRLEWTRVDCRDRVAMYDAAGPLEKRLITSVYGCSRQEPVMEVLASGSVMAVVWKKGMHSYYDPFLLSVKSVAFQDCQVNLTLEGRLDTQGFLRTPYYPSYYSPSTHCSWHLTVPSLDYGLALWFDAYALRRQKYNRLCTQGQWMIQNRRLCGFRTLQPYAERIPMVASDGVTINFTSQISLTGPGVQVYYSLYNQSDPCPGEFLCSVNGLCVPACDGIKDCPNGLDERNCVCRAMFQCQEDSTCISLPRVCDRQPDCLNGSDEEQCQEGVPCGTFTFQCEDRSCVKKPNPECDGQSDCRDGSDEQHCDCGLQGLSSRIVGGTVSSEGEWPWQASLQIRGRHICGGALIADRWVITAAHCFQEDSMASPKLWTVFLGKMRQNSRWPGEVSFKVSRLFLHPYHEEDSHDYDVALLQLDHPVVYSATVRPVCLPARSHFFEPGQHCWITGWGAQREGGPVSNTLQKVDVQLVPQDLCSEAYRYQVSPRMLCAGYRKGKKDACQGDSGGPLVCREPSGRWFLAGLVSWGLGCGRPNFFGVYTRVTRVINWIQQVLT
The experiment can be described thus: cell-based or functional assay.

The target of another experiment is T2, mTMPRSS6_S762A-MMH (mouse, UniProt Q9DBI0 81-811).
T2 construct: also called REGN6848; mouse TMPRSS6 extracellular domain with a S762A mutation and a C-terminal myc-myc-hexahistidine tag
T2 sequence (Q9DBI0 other isoform, or with tags, fused parts or gaps S762A S762A): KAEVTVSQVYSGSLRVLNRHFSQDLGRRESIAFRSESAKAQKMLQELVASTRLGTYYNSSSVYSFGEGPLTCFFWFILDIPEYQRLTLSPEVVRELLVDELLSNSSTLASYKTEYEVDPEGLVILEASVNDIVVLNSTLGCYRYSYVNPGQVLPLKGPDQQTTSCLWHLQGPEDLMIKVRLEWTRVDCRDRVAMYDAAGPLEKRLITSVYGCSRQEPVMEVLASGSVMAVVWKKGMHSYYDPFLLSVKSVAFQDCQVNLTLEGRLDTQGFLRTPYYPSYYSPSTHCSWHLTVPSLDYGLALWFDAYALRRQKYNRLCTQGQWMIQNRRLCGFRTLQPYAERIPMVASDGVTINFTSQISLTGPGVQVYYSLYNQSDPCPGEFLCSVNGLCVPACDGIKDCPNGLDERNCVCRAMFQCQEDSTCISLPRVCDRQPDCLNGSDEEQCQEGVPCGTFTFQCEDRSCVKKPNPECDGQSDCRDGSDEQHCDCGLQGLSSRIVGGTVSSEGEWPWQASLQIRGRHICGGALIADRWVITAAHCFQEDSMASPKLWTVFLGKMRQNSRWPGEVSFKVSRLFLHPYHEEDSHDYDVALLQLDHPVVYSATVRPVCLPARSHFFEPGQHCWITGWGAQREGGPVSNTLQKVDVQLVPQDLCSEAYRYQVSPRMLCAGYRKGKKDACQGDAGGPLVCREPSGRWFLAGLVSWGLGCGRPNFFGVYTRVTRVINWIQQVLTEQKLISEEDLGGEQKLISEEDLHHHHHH
The experiment can be described thus: SPR, mAb captured via anti-hFc, 25 C. On the procedure:
The equilibrium dissociation constant (KD) for TMPRSS6 binding to different TMPRSS6 monoclonal antibodies (mAbs) was determined using a real-time surface plasmon resonance biosensor using a Biacore 4000 instrument. All binding studies were performed in 10 mM HEPES, 150 mM NaCl, 3 mM EDTA, and 0.05% v/v Surfactant Tween-20, pH 7.4 (HBS-ET) running buffer at 25° C. and 37° C. The Biacore CM5 sensor chip surface was first derivatized by amine coupling with a human Fc specific mouse mAb to capture different TMPRSS6 mAbs. […] Different concentrations (100 nM to 3.7 nM, 3-fold serial dilution) of the TMPRSS6 reagent proteins prepared in HBS-EP running buffer were injected over the TMPRSS6 mAb captured surface for 150 seconds at a flow rate of 30 μL/min and their dissociation in HBS-ET running buffer was monitored for 10 minutes. At the end of each cycle, the TMPRSS6 mAb captured surface was regenerated using a 12 second injection of 20 mM phosphoric acid.
The association rate (kₐ) and dissociation rate (kd) were determined by fitting the real-time binding sensorgrams to a 1:1 binding model with mass transport limitation using Scrubber 2.0 (BioLogic Software) curve-fitting software. Binding dissociation equilibrium constant (KD) and dissociative half-life (t½) were calculated from the kinetic rates as: […]

B1: REGN7999 (antibody, human IgG4 S228P, kappa, V domains shown)
VH: EVQLVESGGGLVQPGGSLRLSCAASGFTFSSYAMTWVRQAPGKGLEWVSAISGSDTSTYYADSVKGRFTISRDNSKNTLFLQMNSLRAEDTAVYYCAKHQDYDFSYYYSAMDVWGQGTTVTVSS
VL: DIQMTQSPSSLSASVGDRVIITCRASQDFNSWLAWYQQKPGKAPKLLIYAASSLQSGVPSRFSGSGSGTDFTLTISSLQPEDFATYYCQQTDSFPFTFGPGTKVDIKR
notes: fully human; human IgG4 Fc with hinge S108P; also called mAb41450
What is called Kd is the concentration at which binding is half-saturated. The low end stands for a tighter complex, the high end for a looser complex. A word on the koff: it is the rate constant with which the complex falls apart. The low end stands for slow dissociation, the high end for fast dissociation. One may read the kon as the rate constant with which the complex forms. As usually defined, the t½ is the time in which the quantity being followed falls by half. A higher t½ goes with slow loss. As for B1, in experiment [1], the “% inhibition, HEK293 bioassay, overnight pre-incubation 37 C” value (“% inhibition, HEK293 bioassay” below) was 103% and the “IC50, HEK293 bioassay, overnight pre-incubation 37 C” value (shortened to “IC50, HEK293 bioassay”) amounted to 2.1 nM. Besides, in the experiment with mTMPRSS6_S762A-MMH, the “100 nM Ag Bound” value was found to be 178 RU, the Kd is 0.0829 nM, the koff was found to be 3.45e-05 s⁻¹ and the kon came to 416000 M⁻¹ s⁻¹. Further, the t½ with mTMPRSS6_S762A-MMH worked out at 334 min.

B2: REGN7974 (antibody, human IgG4 S228P, kappa, V domains shown)
VH: EVQLVESGGGLVQPGRSLRLSCIASGFNFGDYGMSWVRQAPGKGLEWVGFIRSKAYGGTTEYAASVKGRFTISRDDSKSIAYLQMNSLKTEDAAMYYCSRDYYDILTGYYGDYWGQGTLVTVSS
VL: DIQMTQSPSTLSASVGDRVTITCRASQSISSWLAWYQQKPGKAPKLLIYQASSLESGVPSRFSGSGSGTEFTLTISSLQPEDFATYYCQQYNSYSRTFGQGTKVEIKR
notes: fully human; human IgG4 Fc with hinge S108P; also called mAb41422
In the case of B2, in the experiment with mTMPRSS6_S762A-MMH, the “100 nM Ag Bound” value is 3 RU and the binding result is listed as “no binding (tested: 100 nM)”.

B3: REGN8023 (antibody, human IgG4 S228P, kappa, V domains shown)
VH: EVQLVESGGGLVKPGGSLRISCAASGFIFVDYAMHWVRQAPGKGLEWVSGISWNSGSIGYADSVKGRFTISRDNAKKSLYLQMSGLRPEDTALYYCVKSGFYYVRSYFDNWGQGTLVTVSS
VL: DIVMTQSPLSLPVTPGEPASISCRSSQSLLDSDDGNTYLDWYLRKPGQSPQLLIYTLSYRASGVPDRFSGSGSGTDFTLKISRVEADDVGVYYCMQRIEFPLTFGGGTKVEIKR
notes: fully human; human IgG4 Fc with hinge S108P; also called mAb37699
For the molecule B3, in experiment [1], the “% inhibition, HEK293 bioassay” value turned out to be 98% and the “IC50, HEK293 bioassay” value came to 1.2 nM. In the experiment with mTMPRSS6_S762A-MMH, the “100 nM Ag Bound” value was 209 RU, binding was characterised by a dissociation constant (Kd) of 1.84 nM, the off-rate constant (koff) is 0.0011 s⁻¹ and the association rate constant (kon) is 599000 M⁻¹ s⁻¹. The molecule also displayed a t½ with mTMPRSS6_S762A-MMH of 10 min.

B4: REGN7977 (antibody, V domains shown)
VH: EVQLVESGGGLVKPGGSLRVSCAASGVTFSNVWMSWVRQVPGKGLEWVGRIKSKTDGGTTDYAAPVKGRFTISKDDSKNTLFLQMNSLKTEDTAVYYCTTETGDFWSGYYPRFQHWGQGTLVTVSS
VL: DIQMTQSPSSLSASVGDRVTITCRASQYISTYLNWYQQKPGKAPSLLIYAASSLQSGVPSRFSGSGSGTDFTLTISSLQPEDFASYSCQQSYSTPPYTFGQGTKLEIKR
notes: fully human; human IgG4 Fc with hinge S108P; also called mAb41465
With B4, in experiment [1], the “% inhibition, HEK293 bioassay” value worked out at 97% and the “IC50, HEK293 bioassay” value stood at 14 nM. For the same molecule, in the experiment with mTMPRSS6_S762A-MMH, the “100 nM Ag Bound” value came out at 20 RU, binding was put at a Kd of 233 nM, the koff was 0.067 s⁻¹ and the kon came out at 288000 M⁻¹ s⁻¹. In the experiment with mTMPRSS6_S762A-MMH, this molecule gave a t½ of 0.17 min.

B5: REGN7969 (antibody, human IgG4 S228P, kappa, V domains shown)
VH: QVQLVESGGGVVQPGRSLRLSCAASGFTFNNYGMHWVRQAPGKGLEWVAIISYDGSNEYYSDSVKGRFTISRDNSKNTLYLQMNSLRAEDTAVYYCARDQDYGGNLFHYWGQGTLVTVSS
VL: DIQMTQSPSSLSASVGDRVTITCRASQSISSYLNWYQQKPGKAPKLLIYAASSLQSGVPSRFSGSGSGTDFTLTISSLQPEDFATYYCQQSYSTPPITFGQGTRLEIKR
notes: fully human; human IgG4 Fc with hinge S108P; also called mAb37746
B5: in the experiment with mTMPRSS6_S762A-MMH, the “100 nM Ag Bound” value was determined as 4 RU and the binding result was “no binding (tested: 100 nM)”.
